B1: mRNA-splicing (parent)
chain: AGUUGCUGCUGGGAGCUCCAGCACAGUGAAAUGGACAGAAGGGCAGAGCAA

Variants of: B1
Experiment: exon inclusion enrichment index; higher = more inclusion; WT1 exon 5 minigene, HEK293

Variant	exon inclusion enrichment index
C6A U7C C9A U10C C22U A23U	2.51
C6A U7C C9A U10C A39G A40C	3.81
C6A U7C C9A U10C A39G A40G	0.569
C6A U7C C9A U10C A39G A40U	0.497
C6A U7C C9A U10C G26U U27C	4
C6A U7C C9A U10C G26U U27A	2.38
C6A U7C C9A U10C G26U U27G	4.12
C6A U7C C9A U10C A37U	2.49
C6A U7C C9A U10C A37C	3.93
C6A U7C C9A U10C A37G	4.15
C6A U7C C9A U10C C16U U17G	2.04
C6A U7C C9A U10C C16U U17C	2.51
C6A U7C C9A U10C C16U U17A	2.9
C6A U7C C9A U10C A39U	0.343
C6A U7C C9A U10C A39G	2.38
C6A U7C C9A U10C A39C	1.37
C6A U7C C9A U10C G15A	3.34
C6A U7C C9A U10C G15C	4
C6A U7C C9A U10C G15U	3.57
C6A U7C C9A U10C A45U G46C	2.51
C6A U7C C9A U10C A45U G46A	2.51

Variant	exon inclusion enrichment index
C6A U7C C9A U10C A45U G46U	1.75
C6A U7C C9A G11U	2.1
C6A U7C C9A G11A	0.337
C6A U7C C9A G11C	2.88
C6A U7C C9A U10C G28U A29U	1.26
C6A U7C C9A U10C G28U A29C	2.72
C6A U7C C9A U10C G28U A29G	3.18
C6A U7C C9A U10C C44A A45C	4.04
C6A U7C C9A U10C C44A A45U	5.42
C6A U7C C9A U10C C44A A45G	4.86
C6A U7C C9A U10C A40U G41C	3.18
C6A U7C C9A U10C A40U G41U	1.9
C6A U7C C9A U10C A40U G41A	0.347
C6A U7C C9A U10C A25G G26A	5.01
C6A U7C C9A U10C A25G G26U	4.03
C6A U7C C9A U10C A25G G26C	4.03
C6A U7C C9A U10C C44U A45G	2.34
C6A U7C C9A U10C C44U A45C	3.64
C6A U7C C9A U10C C44U A45U	2.71
C6A U7C C9A U10C G12C G13A	2.55
C6A U7C C9A U10C G12C G13U	0.77

Variant	exon inclusion enrichment index
C6A U7C C9A U10C G12C G13C	1.72
C6A U7C C9A U10C A30U A31C	2.83
C6A U7C C9A U10C A30U A31U	2.77
C6A U7C C9A U10C A30U A31G	3.73
C6A U7C C9A U10C G11U G12A	1.25
C6A U7C C9A U10C G11U G12U	1.57
C6A U7C C9A U10C G11U G12C	1.94
C6A U7C C9A U10C C36U A37U	1.97
C6A U7C C9A U10C C36U A37C	2.39
C6A U7C C9A U10C C36U A37G	2.91
C6A U7C C9A U10C A31U	3.04
C6A U7C C9A U10C A31G	3.73
C6A U7C C9A U10C A31C	3.96
C6A U7C C9A U10C A30C A31C	4.36
C6A U7C C9A U10C A30C A31G	3.94
C6A U7C C9A U10C A30C A31U	3.15
C6A U7C C9A U10C C19G A20C	3.87
C6A U7C C9A U10C C19G A20G	2.38
C6A U7C C9A U10C C19G A20U	3.25
C6A U7C C9A U10C A39C A40C	3.31
C6A U7C C9A U10C A39C A40G	3.55

Variant	exon inclusion enrichment index
C6A U7C C9A U10C A39C A40U	3.22
C6A U7C C9A U10C C22A	3.18
C6A U7C C9A U10C C22U	2.84
C6A U7C C9A U10C C22G	3.9
C6A U7C C9A U10C A45G G46U	2.89
C6A U7C C9A U10C A45G G46A	4.93
C6A U7C C9A U10C A45G G46C	3.3
C6A U7C C9A U10C A29U A30G	3.55
C6A U7C C9A U10C A29U A30U	1.98
C6A U7C C9A U10C A29U A30C	2.97
C6A U7C C9A U10C C22G A23C	1.74
C6A U7C C9A U10C C22G A23U	0.87
C6A U7C C9A U10C C22G A23G	2.55
C6A U7C C9A U10C A47C G48U	3.09
C6A U7C C9A U10C A47C G48A	2.16
C6A U7C C9A U10C A47C G48C	2.81
C6A U7C C9A U10C G28C A29G	3.91
C6A U7C C9A U10C G28C A29U	2.34
C6A U7C C9A U10C G28C A29C	2.62
C6A U7C C9A U10C A37G G38C	3.21
C6A U7C C9A U10C A37G G38U	1.68

Source: the RNAGym collection of RNA variant scans (doi:10.1101/gr.219683.116)
